Laboratory results from patent US20200199241A1 (Chugai, published 2020).

These binders were tested against T1, soluble human FcRn complexed with β2-microglobulin (human, UniProt P61769 21-119, limits assumed) (assay: Biacore SPR, pH 7.0;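 further: test antibodies captured on a Protein L chip with human FcRn flowed over as analyte, KD obtained as the ratio of dissociation to association rate constants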).
T1 construct: also called hFcRn

Row | Kd [nM] | Binder
1 | 48.7 | IgG1-F1117 (antibody, EU numbering; copies: 2 + 2) heavy: QVQLQESGPGLVKPSETLSLTCAVSGHSISHDHAWSWVRQPPGEGLEWIGFISYSGITNYNPSLQGRVTISRDNSKNTLYLQMNSLRAEDTAVYYCARSLARTTAMDYWGEGTLVTVSSASTKGPSVFPLAPSSKSTSGGTAALGCLVKDYFPEPVTVSWNSGALTSGVHTFPAVLQSSGLYSLSSVVTVPSSSLGTQTYICNVNHKPSNTKVDKKVEPKSCDKTHTCPPCPAPELLGGPSVFLFPPKPKDVLYISRTPEVTCVVVDVSHEDPEVKFNWYVDGVEVHNAKTKPREEQYNSTYRVVSVLQVLHADWLNGKEYKCKVSNKALPAPIEKTISKAKGQPREPQVYTLPPSRDELTKNQVSLTCLVKGFYPSDIAVEWESNGQPENNYKTTPPVLDSDGSFFLYSKLTVDKSRWQQGNVFNCSVMHEALHYHVTQKSLSLSP light: not shown
2 | 13.2 | IgG1-F1118 (antibody, EU numbering; copies: 2 + 2) heavy: QVQLQESGPGLVKPSETLSLTCAVSGHSISHDHAWSWVRQPPGEGLEWIGFISYSGITNYNPSLQGRVTISRDNSKNTLYLQMNSLRAEDTAVYYCARSLARTTAMDYWGEGTLVTVSSASTKGPSVFPLAPSSKSTSGGTAALGCLVKDYFPEPVTVSWNSGALTSGVHTFPAVLQSSGLYSLSSVVTVPSSSLGTQTYICNVNHKPSNTKVDKKVEPKSCDKTHTCPPCPAPELLGGPSVFLFPPKPKDVLYISRTPEVTCVVVDVSHEDPEVKFNWYVDGVEVHNAKTKPREEQYNSTYRVVSVLQPLHADWLNGKEYKCKVSNKALPAPIEKTISKAKGQPREPQVYTLPPSRDELTKNQVSLTCLVKGFYPSDIAVEWESNGQPENNYKTTPPVLDSDGSFFLYSKLTVDKSRWQQGNVFNCSVMHEALHYHVTQKSLSLSP light: not shown
3 | 10.4 | IgG1-F1120 (antibody, EU numbering; copies: 2 + 2) heavy: QVQLQESGPGLVKPSETLSLTCAVSGHSISHDHAWSWVRQPPGEGLEWIGFISYSGITNYNPSLQGRVTISRDNSKNTLYLQMNSLRAEDTAVYYCARSLARTTAMDYWGEGTLVTVSSASTKGPSVFPLAPSSKSTSGGTAALGCLVKDYFPEPVTVSWNSGALTSGVHTFPAVLQSSGLYSLSSVVTVPSSSLGTQTYICNVNHKPSNTKVDKKVEPKSCDKTHTCPPCPAPELLGGPSVFLFPPKPKDVLYISRTPEVTCVVVDVSHEDPEVKFNWYVDGVEVHNAKTKPREEQYNSTYRVVSVLQPLHADWLNGKEYKCKVSNKALPAPIEKTISKAKGQPREPQVYTLPPSRDELTKNQVSLTCLVKGFYPSDIAVEWESNGQPENNYKTTPPVLDSDGSFFLYSKLTVDKSRWQQGNVFRCSVMHEALHYHVTQKSLSLSP light: not shown
4 | 44.8 | IgG1-F1129 (antibody, EU numbering; copies: 2 + 2) heavy: QVQLQESGPGLVKPSETLSLTCAVSGHSISHDHAWSWVRQPPGEGLEWIGFISYSGITNYNPSLQGRVTISRDNSKNTLYLQMNSLRAEDTAVYYCARSLARTTAMDYWGEGTLVTVSSASTKGPSVFPLAPSSKSTSGGTAALGCLVKDYFPEPVTVSWNSGALTSGVHTFPAVLQSSGLYSLSSVVTVPSSSLGTQTYICNVNHKPSNTKVDKKVEPKSCDKTHTCPPCPAPELLGGPSVFLFPPKPKDTLYISRTPEVTCVVVDVSHEDPEVKFNWYVDGVEVHNAKTKPREEQYNSTYRVVSVLQVLHHDWLNGKEYKCKVSNKALPAPIEKTISKAKGQPREPQVYTLPPSRDELTKNQVSLTCLVKGFYPSDIAVEWESNGQPENNYKTTPPVLDSDGSFFLYSKLTVDKSRWQQGNVFSCSVMHEALHYHVTQKSLSLSP light: not shown
5 | 12.2 | IgG1-F1124 (antibody, EU numbering; copies: 2 + 2) heavy: QVQLQESGPGLVKPSETLSLTCAVSGHSISHDHAWSWVRQPPGEGLEWIGFISYSGITNYNPSLQGRVTISRDNSKNTLYLQMNSLRAEDTAVYYCARSLARTTAMDYWGEGTLVTVSSASTKGPSVFPLAPSSKSTSGGTAALGCLVKDYFPEPVTVSWNSGALTSGVHTFPAVLQSSGLYSLSSVVTVPSSSLGTQTYICNVNHKPSNTKVDKKVEPKSCDKTHTCPPCPAPELLGGPSVFLFPPKPKDVLYISRTPEVTCVVVDVSHEDPEVKFNWYVDGVEVHNAKTKPREEQYNSTYRVVSVLQPLHADWLNGKEYKCKVSNKALPAPIEKTISKAKGQPREPQVYTLPPSRDELTKNQVSLTCLVKGFYPSDIAVEWESNGQPENNYKTTPPVLDSDGSFFLYSKLTVDKSRWQQGNVFSCSVMHEALHYHVTRKELSLSP light: not shown
6 | 89.5 | IgG1-F1126 (antibody, EU numbering; copies: 2 + 2) heavy: QVQLQESGPGLVKPSETLSLTCAVSGHSISHDHAWSWVRQPPGEGLEWIGFISYSGITNYNPSLQGRVTISRDNSKNTLYLQMNSLRAEDTAVYYCARSLARTTAMDYWGEGTLVTVSSASTKGPSVFPLAPSSKSTSGGTAALGCLVKDYFPEPVTVSWNSGALTSGVHTFPAVLQSSGLYSLSSVVTVPSSSLGTQTYICNVNHKPSNTKVDKKVEPKSCDKTHTCPPCPAPELLGGPSVFLFPPKPKDTLYISRTPEVTCVVVDVSHEDPEVKFNWYVDGVEVHNAKTKPREEQYNSTYRVVSVLAVLHQDWLNGKEYKCKVSNKALPAPIEKTISKAKGQPREPQVYTLPPSRDELTKNQVSLTCLVKGFYPSDIAVEWESNGQPENNYKTTPPVLDSDGSFFLYSKLTVDKSRWQQGNVFSCSVMHEALHYHVTQKSLSLSP light: not shown
7 | 9.55 | IgG1-F1123 (antibody, EU numbering; copies: 2 + 2) heavy: QVQLQESGPGLVKPSETLSLTCAVSGHSISHDHAWSWVRQPPGEGLEWIGFISYSGITNYNPSLQGRVTISRDNSKNTLYLQMNSLRAEDTAVYYCARSLARTTAMDYWGEGTLVTVSSASTKGPSVFPLAPSSKSTSGGTAALGCLVKDYFPEPVTVSWNSGALTSGVHTFPAVLQSSGLYSLSSVVTVPSSSLGTQTYICNVNHKPSNTKVDKKVEPKSCDKTHTCPPCPAPELLGGPSVFLFPPKPKDVLYISRTPEVTCVVVDVSHEDPEVKFNWYVDGVEVHNAKTKPREEQYNSTYRVVSVLQPLHADWLNGKEYKCKVSNKALPAPIEKTISKAKGQPREPQVYTLPPSRDELTKNQVSLTCLVKGFYPSDIAVEWESNGQPENNYKTTPPVLDSDGSFFLYSKLTVDKSRWQQGNVFSCSVMHEALHYHVTQKELSLSP light: not shown
8 | 79.4 | IgG1-F1127 (antibody, EU numbering; copies: 2 + 2) heavy: QVQLQESGPGLVKPSETLSLTCAVSGHSISHDHAWSWVRQPPGEGLEWIGFISYSGITNYNPSLQGRVTISRDNSKNTLYLQMNSLRAEDTAVYYCARSLARTTAMDYWGEGTLVTVSSASTKGPSVFPLAPSSKSTSGGTAALGCLVKDYFPEPVTVSWNSGALTSGVHTFPAVLQSSGLYSLSSVVTVPSSSLGTQTYICNVNHKPSNTKVDKKVEPKSCDKTHTCPPCPAPELLGGPSVFLFPPKPKDTLYISRTPEVTCVVVDVSHEDPEVKFNWYVDGVEVHNAKTKPREEQYNSTYRVVSVLTVLHADWLNGKEYKCKVSNKALPAPIEKTISKAKGQPREPQVYTLPPSRDELTKNQVSLTCLVKGFYPSDIAVEWESNGQPENNYKTTPPVLDSDGSFFLYSKLTVDKSRWQQGNVFSCSVMHEALHYHVTQKSLSLSP light: not shown
9 | 10.4 | IgG1-F1121 (antibody, EU numbering; copies: 2 + 2) heavy: QVQLQESGPGLVKPSETLSLTCAVSGHSISHDHAWSWVRQPPGEGLEWIGFISYSGITNYNPSLQGRVTISRDNSKNTLYLQMNSLRAEDTAVYYCARSLARTTAMDYWGEGTLVTVSSASTKGPSVFPLAPSSKSTSGGTAALGCLVKDYFPEPVTVSWNSGALTSGVHTFPAVLQSSGLYSLSSVVTVPSSSLGTQTYICNVNHKPSNTKVDKKVEPKSCDKTHTCPPCPAPELLGGPSVFLFPPKPKDVLYISRTPEVTCVVVDVSHEDPEVKFNWYVDGVEVHNAKTKPREEQYNSTYRVVSVLQPLHADWLNGKEYKCKVSNKALPAPIEKTISKAKGQPREPQVYTLPPSRDELTKNQVSLTCLVKGFYPSDIAVEWESNGQPENNYKTTPPVLDSDGSFFLYSKLTVDKSRWQQGNEFRCSVMHEALHYHVTQKSLSLSP light: not shown
10 | 13.7 | IgG1-F1122 (antibody, EU numbering; copies: 2 + 2) heavy: QVQLQESGPGLVKPSETLSLTCAVSGHSISHDHAWSWVRQPPGEGLEWIGFISYSGITNYNPSLQGRVTISRDNSKNTLYLQMNSLRAEDTAVYYCARSLARTTAMDYWGEGTLVTVSSASTKGPSVFPLAPSSKSTSGGTAALGCLVKDYFPEPVTVSWNSGALTSGVHTFPAVLQSSGLYSLSSVVTVPSSSLGTQTYICNVNHKPSNTKVDKKVEPKSCDKTHTCPPCPAPELLGGPSVFLFPPKPKDVLYISRTPEVTCVVVDVSHEDPEVKFNWYVDGVEVHNAKTKPREEQYNSTYRVVSVLQPLHADWLNGKEYKCKVSNKALPAPIEKTISKAKGQPREPQVYTLPPSRDELTKNQVSLTCLVKGFYPSDIAVEWESNGQPENNYKTTPPVLDSDGSFFLYSKLTVDKSRWQQGNVFSCSVMHEALHYHVTRKSLSLSP light: not shown
11 | 51.8 | IgG1-F1125 (antibody, EU numbering; copies: 2 + 2) heavy: QVQLQESGPGLVKPSETLSLTCAVSGHSISHDHAWSWVRQPPGEGLEWIGFISYSGITNYNPSLQGRVTISRDNSKNTLYLQMNSLRAEDTAVYYCARSLARTTAMDYWGEGTLVTVSSASTKGPSVFPLAPSSKSTSGGTAALGCLVKDYFPEPVTVSWNSGALTSGVHTFPAVLQSSGLYSLSSVVTVPSSSLGTQTYICNVNHKPSNTKVDKKVEPKSCDKTHTCPPCPAPELLGGPSVFLFPPKPKDTLYISRTPEVTCVVVDVSHEDPEVKFNWYVDGVEVHNAKTKPREEQYNSTYRVVSVLQVLHQDWLNGKEYKCKVSNKALPAPIEKTISKAKGQPREPQVYTLPPSRDELTKNQVSLTCLVKGFYPSDIAVEWESNGQPENNYKTTPPVLDSDGSFFLYSKLTVDKSRWQQGNVFSCSVMHEALHYHVTQKSLSLSP light: not shown
12 | 117 | IgG1-F1128 (antibody, EU numbering; copies: 2 + 2) heavy: QVQLQESGPGLVKPSETLSLTCAVSGHSISHDHAWSWVRQPPGEGLEWIGFISYSGITNYNPSLQGRVTISRDNSKNTLYLQMNSLRAEDTAVYYCARSLARTTAMDYWGEGTLVTVSSASTKGPSVFPLAPSSKSTSGGTAALGCLVKDYFPEPVTVSWNSGALTSGVHTFPAVLQSSGLYSLSSVVTVPSSSLGTQTYICNVNHKPSNTKVDKKVEPKSCDKTHTCPPCPAPELLGGPSVFLFPPKPKDTLYISRTPEVTCVVVDVSHEDPEVKFNWYVDGVEVHNAKTKPREEQYNSTYRVVSVLTVLHHDWLNGKEYKCKVSNKALPAPIEKTISKAKGQPREPQVYTLPPSRDELTKNQVSLTCLVKGFYPSDIAVEWESNGQPENNYKTTPPVLDSDGSFFLYSKLTVDKSRWQQGNVFSCSVMHEALHYHVTQKSLSLSP light: not shown
13 | 10.3 | IgG1-F1119 (antibody, EU numbering; copies: 2 + 2) heavy: QVQLQESGPGLVKPSETLSLTCAVSGHSISHDHAWSWVRQPPGEGLEWIGFISYSGITNYNPSLQGRVTISRDNSKNTLYLQMNSLRAEDTAVYYCARSLARTTAMDYWGEGTLVTVSSASTKGPSVFPLAPSSKSTSGGTAALGCLVKDYFPEPVTVSWNSGALTSGVHTFPAVLQSSGLYSLSSVVTVPSSSLGTQTYICNVNHKPSNTKVDKKVEPKSCDKTHTCPPCPAPELLGGPSVFLFPPKPKDVLYISRTPEVTCVVVDVSHEDPEVKFNWYVDGVEVHNAKTKPREEQYNSTYRVVSVLQPLHADWLNGKEYKCKVSNKALPAPIEKTISKAKGQPREPQVYTLPPSRDELTKNQVSLTCLVKGFYPSDIAVEWESNGQPENNYKTTPPVLDSDGSFFLYSKLTVDKSRWQQGNEFSCSVMHEALHYHVTQKSLSLSP light: not shown
